Results reported in patent US20260055183A1.

Target: triggering receptor expressed on myeloid cells 1 (TREM-1), human, on monocytes / PBMCs of healthy donors (human) (UniProt Q9NP99)
Test: cell-based or functional assay

Sequence of triggering receptor expressed on myeloid cells 1 (TREM-1), human, on monocytes / PBMCs of healthy donors (human) (Q9NP99 21-234 limits assumed): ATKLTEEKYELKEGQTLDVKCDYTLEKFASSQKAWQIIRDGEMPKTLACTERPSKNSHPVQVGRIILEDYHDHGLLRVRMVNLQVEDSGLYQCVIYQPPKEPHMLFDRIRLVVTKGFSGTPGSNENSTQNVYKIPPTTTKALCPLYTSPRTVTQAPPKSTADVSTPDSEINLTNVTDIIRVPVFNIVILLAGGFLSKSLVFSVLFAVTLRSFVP
Sequence of peptidoglycan-recognition-protein 1 (PGLYRP1) (O75594 22-196 limits assumed): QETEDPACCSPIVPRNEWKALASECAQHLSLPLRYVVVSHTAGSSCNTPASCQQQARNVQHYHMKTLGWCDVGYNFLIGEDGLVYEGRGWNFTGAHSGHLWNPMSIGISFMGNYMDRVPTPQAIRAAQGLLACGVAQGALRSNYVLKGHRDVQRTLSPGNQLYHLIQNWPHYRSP

Work on “peptidoglycan-recognition-protein 1 (PGLYRP1) (from UniProt O75594 22-196) (ligand)” yielded a Log2FC P + L vs P, ACOT7 mRNA in monocytes (log2 fold change) of 2.23, a Log2FC P + L vs P, CD52 mRNA in monocytes (log2 fold change) of 2.28 and a Log2FC P + L vs P, CD55 mRNA in monocytes (log2 fold change) of 2.39. It also gave a Log2FC P + L vs P, CDKN1A mRNA in monocytes (log2 fold change) of 2.3, a Log2FC P + L vs P, CHI3L1 mRNA in monocytes (log2 fold change) of 5.62 and a Log2FC P + L vs P, CISH mRNA in monocytes (log2 fold change) of 3.28. For the same substance, the Log2FC P + L vs P, CLEC12A mRNA in monocytes (log2 fold change) was 2.94, the Log2FC P + L vs P, DHRS9 mRNA in monocytes (log2 fold change) was 3.22 and the Log2FC P + L vs P, EHD1 mRNA in monocytes (log2 fold change) was 3.37. The Log2FC P + L vs P, FAM129A mRNA in monocytes (log2 fold change) was 2.31, the Log2FC P + L vs P, GALNT6 mRNA in monocytes (log2 fold change) was 2.09 and the Log2FC P + L vs P, IFNLR1 mRNA in monocytes (log2 fold change) was 3.07. It also gave a Log2FC P + L vs P, MFSD12 mRNA in monocytes (log2 fold change) of 3.07, a Log2FC P + L vs P, MTMR11 mRNA in monocytes (log2 fold change) of 2.58 and a Log2FC P + L vs P, NAMPT mRNA in monocytes (log2 fold change) of 3.47. For the same substance, the Log2FC P + L vs P, PIM2 mRNA in monocytes (log2 fold change) was 2.71, the Log2FC P + L vs P, PLK3 mRNA in monocytes (log2 fold change) was 2.67 and the Log2FC P + L vs P, SLC27A3 mRNA in monocytes (log2 fold change) was 2.74. For the same substance, the Log2FC P + L vs P, STARD4 mRNA in monocytes (log2 fold change) was 2.56, the Log2Fc.P + L vs P, CCL1 mRNA in monocytes (log2 fold change) was 8.39 and the Log2Fc.P + L vs P, CCL20 mRNA in monocytes (log2 fold change) was 8.73. It also gave a Log2Fc.P + L vs P, CXCL3 mRNA in monocytes (log2 fold change) of 7.21, a Log2Fc.P + L vs P, F3 mRNA in monocytes (log2 fold change) of 7.55 and a Log2Fc.P + L vs P, IL6 mRNA in monocytes (log2 fold change) of 9.16. The Log2Fc.P + L vs P, IL23A mRNA in monocytes (log2 fold change) was 6.96, the Log2Fc.P + L vs P, IL24 mRNA in monocytes (log2 fold change) was 6.66 and the Log2Fc.P + L vs P, IL36G mRNA in monocytes (log2 fold change) was 7.91. For the same substance, the Log2Fc.P + L vs P, ILIA (Interleukin 1, alpha) mRNA in monocytes (log2 fold change) was 6.86, the Log2Fc.P + L vs P, ILIRN (Interleukin 1 receptor antagonist) mRNA in monocytes (log2 fold change) was 7.28 and the Log2Fc.P + L vs P, INHBA mRNA in monocytes (log2 fold change) was 8.04. For the same substance, the Log2Fc.P + L vs P, MMP1 mRNA in monocytes (log2 fold change) was 9.31, the Log2Fc.P + L vs P, MMP7 mRNA in monocytes (log2 fold change) was 8.32 and the Log2Fc.P + L vs P, MMP10 mRNA in monocytes (log2 fold change) was 8.47. For the same substance, the Log2Fc.P + L vs P, OCSTAMP mRNA in monocytes (log2 fold change) was 7.62, the Log2Fc.P + L vs P, PTGS2 mRNA in monocytes (log2 fold change) was 8.32 and the Log2Fc.P + L vs P, RGS16 mRNA in monocytes (log2 fold change) was 7.52. It also gave a Log2Fc.P + L vs P, SCG5 mRNA in monocytes (log2 fold change) of 8.09, a Log2Fc.P + L vs P, TFPI2 mRNA in monocytes (log2 fold change) of 7.57 and a Log2Fc.P + L vs P, TNFSF15 mRNA in monocytes (log2 fold change) of 8.65.
